Laboratory results reported in patent publication US20210238294A1 (JIANGSU HENGRUI MEDICINE, published 2021).
Where two headings read alike, the source gives them in different places.

Legend:
Assay in all cases: cell-based or functional assay
[1] = molecular target: T1, human IL-4R on cells (HEK-Blue IL-4 cells, TF-1 cells) (human, UniProt P24394 26-825)
[2] = molecular target: T1, human IL-4R on cells (HEK-Blue IL-4 …); remark: listed apart in the source
[3] = molecular target: T1, human IL-4R on cells (HEK-Blue IL-4 …); remark: listed apart in the source
[4] = molecular target: T1, human IL-4R on cells (HEK-Blue IL-4 …); remark: listed apart in the source

Binder	Inhibiting the proliferation of TF-1 cell by IL-4 (IC50) [1] [µg/mL]	blocking the binding of HEK293-Blue IL-4 cell (to IL-4) (IC50) [1] [µg/mL]	Inhibiting the proliferation of TF-1 cells by IL-4 (IC50) [2] [µg/mL]	blocking of the binding of HEK293-Blue IL-4 cell (to IL-4) (IC50) [2] [µg/mL]	Inhibiting the proliferation of TF-1 cell by IL-13 (IC50) [3] [µg/mL]	Inhibiting the proliferation of TF-1 cells by IL-4 (IC50) [3] [µg/mL]	blocking the binding of HEK293-Blue cells (with IL-4) (IC50) [3] [µg/mL]	blocking the binding of HEK293-Blue cells (with IL-13) (IC50) [3] [µg/mL]	Inhibiting the proliferation of TF-1 cells by IL-4 (IC50) [4] [µg/mL]	blocking the binding of HEK293-Blue IL-4 cell (to IL-4) (IC50) [4] [µg/mL]
humanized antibody hu7B10 (with VH-b heavy chain and VL-b light chain) (antibody, human IgG1, kappa, V domains shown) VH: EVQLVQSGAEVKKPGASVKVSCKASGYTFTSYWMHWVRQAPGQGLEWMGLIHPNSDTTKFSENFKTRVTMTIDTSISTAYMELSRLRSDDTAVYYCAKSKIITTIVARHWYFDVWGQGTTVTVSS VL: DIVLTQTPLSLSVTPGQPASISCKASQSVDYGGDSYMNWYLQKPGQPPQLLIYAASNLESGVPDRFSGSGSGTDFTLKISRVEAEDVGVYYCQHSNENPPTFGGGTKVEIKR	0.112	0.00687	–	–	–	–	–	–	–	–
murine monoclonal antibody 25G7 (antibody, V domains shown) VH: EVQLVESGGGLVKPGGSLKLSCAASGFTFSDYGMHWVRQAPEKGLEWVAFISSGSSIIYYADIVKGRSTISRDNAKNTLFLQMTSLRSEDTAMYYCTRGNKRGFFDYWGQGTILTVSS VL: QIVLTQSPALMSASPGEKVTMTCNASSSVSYMYWYQRKPRSSPKPWIYLTSNLASGVPVRFSGSGSGTSYSLTISSMEAEDAATYYCQQWRSNPPMLTFGSGTKLEVK	–	–	0.0513	0.000975	–	–	–	–	–	–
affinity-matured humanized antibody hu25G7-A (antibody, human IgG4 S228P, kappa, V domains shown) VH: EVQLVESGGGLVQPGGSLRLSCAASGFTFSDYGMHWVRQAPGKGLEWVAFISSGSSIIYYADIVKGRSTISRDNAKNTLYLQMNSLRAEDTAVYYCTRGNKRGFFDYWGQGTLVTVSS VL: EIVLTQSPATLSLSPGERATLSCRASSSVPYMYWYQQKPGQAPRLLIYLTSNLASGIPARFSGSGSGTDFTLTISSLEPEDFAVYYCQQWRAYPPMLTFGGGTKVEIKR	–	–	–	–	0.0132	0.0837	0.00649	0.01	–	–
human-mouse chimeric antibody 25G7-C (antibody, V domains shown) VH: EVQLVESGGGLVKPGGSLKLSCAASGFTFSDYGMHWVRQAPEKGLEWVAFISSGSSIIYYADIVKGRSTISRDNAKNTLFLQMTSLRSEDTAMYYCTRGNKRGFFDYWGQGTILTVSS VL: QIVLTQSPALMSASPGEKVTMTCNASSSVSYMYWYQRKPRSSPKPWIYLTSNLASGVPVRFSGSGSGTSYSLTISSMEAEDAATYYCQQWRSNPPMLTFGSGTKLEVK	–	–	–	–	–	–	–	–	0.0203	0.00202
humanized antibody hu25G7 (with VH-c heavy chain and VL-a light chain) (antibody, human IgG4 S228P, kappa, V domains shown) VH: EVQLVESGGGLVQPGGSLRLSCAASGFTFSDYGMHWVRQAPGKGLEWVAFISSGSSIIYYADIVKGRSTISRDNAKNSLYLQMNSLRAEDTAVYYCTRGNKRGFFDYWGQGTLVTVSS VL: EIVLTQSPATLSLSPGERATLSCNASSSVSYMYWYQQKPGQAPRLLIYLTSNLASGIPARFSGSGSGTDFTLTISSLEPEDFAVYYCQQWRSNPPMLTFGGGTKVEIKR	0.0296	0.000943	–	–	–	–	–	–	–	–
affinity-matured humanized antibody hu25G7-B (antibody, human IgG4 S228P, kappa, V domains shown) VH: EVQLVESGGGLVQPGGSLRLSCAASGFTFSDYGMHWVRQAPGKGLEWVAFISSGSSIIYYADIVKGRSTISRDNAKNTLYLQMNSLRAEDTAVYYCTRGNKRGFFDYWGQGTLVTVSS VL: EIVLTQSPATLSLSPGERATLSCRASPGVPPLAWYQQKPGQAPRLLIYLASSRPSGIPARFSGSGSGTDFTLTISSLEPEDFAVYYCQQWRSNPPMLTFGGGTKVEIKR	–	–	–	–	0.0137	0.051	0.0066	0.00838	–	–
Dupilumab (antibody, V domains shown) VH: EVQLVESGGGLEQPGGSLRLSCAGSGFTFRDYAMTWVRQAPGKGLEWVSSISGSGGNTYYADSVKGRFTISRDNSKNTLYLQMNSLRAEDTAVYYCAKDRLSITIRPRYYGLDVWGQGTTVTVSS VL: DIVMTQSPLSLPVTPGEPASISCRSSQSLLYSIGYNYLDWYLQKSGQSPQLLIYLGSNRASGVPDRFSGSGSGTDFTLKISRVEAEDVGFYYCMQALQTPYTFGQGTKLEIKR	0.491	0.000667	0.102	0.00507	0.0181	0.101	0.0125	0.0148	0.207	0.00324
human-mouse chimeric antibody 7B10-C (antibody, V domains shown) VH: QVQLQQPGTELLKPGASVSLSCKASGYTFTSYWMHWVKQRPGQGLEWIGLIHPNSDTTKFSENFKTRATLTIDKSSSTAYMKLSSLTSEDSAVYYCAKSKIITTIVARHWYFDVWGTGTTVTVSS VL: DIVLTQSPPSLAVSLGQRATISCKASQSVDYGGDSYMNWYQQKLGQPPKVLIYAASNLESGIPARFSGSGSGTDFTLNIHPVEEEDVATYYCQHSNENPPTFGGGTKLEIK	–	–	–	–	–	–	–	–	0.0464	0.00903
mouse monoclonal antibody 7B10 (antibody, V domains shown) VH: QVQLQQPGTELLKPGASVSLSCKASGYTFTSYWMHWVKQRPGQGLEWIGLIHPNSDTTKFSENFKTRATLTIDKSSSTAYMKLSSLTSEDSAVYYCAKSKIITTIVARHWYFDVWGTGTTVTVSS VL: DIVLTQSPPSLAVSLGQRATISCKASQSVDYGGDSYMNWYQQKLGQPPKVLIYAASNLESGIPARFSGSGSGTDFTLNIHPVEEEDVATYYCQHSNENPPTFGGGTKLEIK	–	–	0.418	0.0798	–	–	–	–	–	–
